Reference: PMC3623829

Legend:
[1] = target: HIV-1 CA (capsid protein) M68C/E212C (HIV-1); assay: cross-linking; spontaneous disulfide crosslinking of engineered cysteines in virions; viruses pelleted through 20% sucrose (100,000 x g, 30 min), dissolved in SDS sample buffer without beta-mercaptoethanol, 95°C 5 min, SDS-PAGE, immunoblot with rabbit polyclonal anti-CA antibody
[2] = target: HIV-1 CA (capsid protein) Q63C/Y169C (HIV-1); assay: as above

Row | Substance | stoichiometry N [1] | stoichiometry N [2]
1 | HIV-1 CA (capsid protein) M68C/E212C (natural protein) | 6 | –
2 | HIV-1 CA (capsid protein) Q63C/Y169C (natural protein) | – | 6
